Data on 1 substance can be found in article PMC4936685.

This experiment addresses Recombinant human latent TGF-β1 (small latent complex, SLC: LAP with mature TGF-β1) (human) (UniProt P01137). Put plainly: SPR; Biacore 3000; LAP or latent TGF-β1 amine-coupled to a CM5 chip (1000 RU); PSG9-Fc injected at 6, 4, 2, 1, 0.5 and 0.25 μM, 10 μl/min, 25°C, HBS-EP (0.01 M HEPES pH 7.4, 0.15 M NaCl, 3 mM EDTA, 0.005% P20); 1:1 Langmuir model.
Chain of UniProt P01137 (P01137 whole entry, one chain of several): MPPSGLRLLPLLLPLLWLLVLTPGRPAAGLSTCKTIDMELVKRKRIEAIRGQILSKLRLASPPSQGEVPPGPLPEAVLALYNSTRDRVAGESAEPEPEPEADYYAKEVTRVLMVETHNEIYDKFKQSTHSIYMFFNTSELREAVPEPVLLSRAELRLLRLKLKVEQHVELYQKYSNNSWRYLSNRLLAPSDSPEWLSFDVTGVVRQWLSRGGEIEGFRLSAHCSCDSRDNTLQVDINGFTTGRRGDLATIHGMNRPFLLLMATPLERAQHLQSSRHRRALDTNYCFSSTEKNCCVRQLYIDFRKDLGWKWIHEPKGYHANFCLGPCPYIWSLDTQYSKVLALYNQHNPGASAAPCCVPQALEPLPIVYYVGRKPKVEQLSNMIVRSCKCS

Turning to “PSG9-Fc (recombinant human pregnancy-specific glycoprotein 9 with the N, A1, A2 and B2 domains, fused to the Fc of human IgG1) (from UniProt Q00887-1 35-426) (Fc fusion)”, the Kd was 560 nM, the koff came to 0.00065 s⁻¹ and the on-rate constant (kon) is 1150 M⁻¹ s⁻¹.
